The results in this text go back to paper PMC10226596, “The ethylene-responsive transcription factor PpERF9 represses PpRAP2.4 and PpMYB114 via histone deacetylation to inhibit anthocyanin biosynthesis in pear”.

The target of data set [1] is T1, PpRAP2.4 (Pyrus (pear, 'Hongzaosu'?), UniProt A0A5N5HQM7 1-356). Nature of the data set: EMSA; 3 ug protein; cold competitor 10-, 50-, 200-fold; LightShift Chemiluminescent EMSA Kit (Thermo Scientific); buffer, salt, pH and temperature not stated. Conditions: protein: recombinant; tags: His (pET32a); label: 3' biotin (hot probe); blunt. (In general: Mobility shift assays separate free from complexed probe on a gel.)
T1 sequence (A0A5N5HQM7 entry or part of it): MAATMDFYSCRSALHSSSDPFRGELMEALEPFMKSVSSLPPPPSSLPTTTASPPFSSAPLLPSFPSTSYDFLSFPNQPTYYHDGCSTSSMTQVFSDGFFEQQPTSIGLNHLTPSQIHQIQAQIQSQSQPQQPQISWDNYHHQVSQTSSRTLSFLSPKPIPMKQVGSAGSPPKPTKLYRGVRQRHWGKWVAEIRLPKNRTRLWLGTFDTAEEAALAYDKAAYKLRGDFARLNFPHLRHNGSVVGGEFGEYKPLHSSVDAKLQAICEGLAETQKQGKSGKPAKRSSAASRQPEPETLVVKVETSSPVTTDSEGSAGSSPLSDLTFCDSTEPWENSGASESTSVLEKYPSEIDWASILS

Data set [2] addresses T1, PpRAP2.4. Nature of the data set: EMSA; cold competitor 50-, 100-, 200-fold; LightShift Chemiluminescent EMSA Kit (Thermo Scientific); buffer, salt, pH and temperature not stated. Conditions: protein: recombinant; tags: His (pET32a); label: 3' biotin (hot probe); blunt.

B1: ProMYB114-probe (dsDNA)
DNA 1: GCTTGCCGTCTTTGTCGTCTCCGGCGCCGCCATCTACATCTGCTTCCAGGTTCAAC
DNA 2: GTTGAACCTGGAAGCAGATGTAGATGGCGGCGCCGGAGACGACAAAGACGGCAAGC
Consider B1, for which, in the data set with PpRAP2.4 [1], the binding result is “binds”.

B2: ProACS1-probe (dsDNA)
DNA 1: GAAAAATAGAGGAGAAAAATGGCCGACAAAATTAGTTGTGGCTACTAGAGTCAAGAAG
DNA 2: CTTCTTGACTCTAGTAGCCACAACTAATTTTGTCGGCCATTTTTCTCCTCTATTTTTC
For the molecule B2, the binding result in the data set with PpRAP2.4 [2] is “binds”.
